The values below come from patent publication US9260754B2, “Connexin mutation detection for lymphatic variation and disease” (University of Pittsburgh—Of the Commonwealth System of …, priority 2010, dated 2016).

The assay deals with HeLa cell pairs. Description: Dual whole cell patch clamp recording of coupling current in transfected HeLa cell pairs. In kind it is cell-based, human. Conditions: for elect coupling: Table 3 (Example 2); for elect coupling / electrical coupling: HeLa cell pairs, 100 mV step, mean ± SEM; for electrical coupling: Table 6 (Example 4); for electrical coupling / functional channels in HeLa cell pairs (in words): transfected HeLa cell pairs, voltage step protocol −100 to +100 mV. The procedure:
Coupling currents were recorded using simultaneous double whole-cell patch clamp recordings from isolated pairs of cells that were in contact with one another (determined visually) as previously described. Briefly, the pipette solution consisted of (mM): 130 CsCl, 10 EGTA, 10 HEPES, 3 Mg-ATP, 2 Na-ATP, 0.5 CaCl2, pH 7.3. The culture was bathed in a solution consisting of (mM): 140 NaCl, 5 HEPES, 5 glucose, 4 KCl, 2 CsCl, 2 CaCl2, 2 pyruvate, 1 BaCl2, pH 7.3. Transfected HeLas undergo electrophysiologic analysis in a blinded manner. Pairs of cells were chosen for study only if both expressed the GFP marker indicative of successful transfections; both stable and transient transfectants were analyzed. Patch pipettes were fabricated from borosilicate glass, and coupling currents were amplified by Axopatch 200A amplifiers, filtered at 1 KHz, and digitized at 5 KHz for subsequent analysis using pClamp software (Axon Instruments/Molecular Devices; Sunnyvale, Calif.). All experiments were carried out at room temperature (22° C.). Coupling current was quantified by measuring the peak current recorded in the pair when the neighboring cell received a 100 mV step membrane potential change (in both positive and negative directions). Step changes in membrane potential were delivered to each cell in the pair in sequence and the average current recorded in the neighboring cell was determined and divided by 100 to generate coupling current expressed in pA/mV. Means±SEM were calculated and statistical significance using a one-way analysis of variance and Tukey's post-hoc test, p<0.05.
Coupling current is quantified by measuring the peak current recorded in the pair when the neighboring cell receives a 100 mV step membrane potential change (in both positive and negative directions). Step changes in membrane potential are delivered to each cell in the pair in sequence and the average current recorded in the neighboring cell determined and divided by 100 to generate coupling current expressed in pA/mV (FIG. 6C). Replicate measurements (n=3-6) are made on at least two different days. […] The untransfected HeLa cell pairs also show minimal channel function, as predicted.
Electrophysiologic characteristics of GJIC were measured between HeLa cell pairs transfected with the mutant constructs (as indicated by EGFP expression) by dual whole cell patch clamp recording. All experiments were carried out in a blinded manner. Coupling current is quantified by measuring the peak current recorded in the pair when the neighboring cell receives a 100 mV step membrane potential change (in both positive and negative directions). Step changes in membrane potential are delivered to each cell in the pair in sequence and the average current recorded in the neighboring cell determined and divided by 100 to generate coupling current expressed in pA/mV. Untransfected HeLa cells and cells transfected with empty vector (i.e., no hCx47) were used as additional controls.
(In general: Patch clamp records ionic current or voltage across a cell membrane.)

B1: WT-hCx47: human wild type Cx47 construct in bicistronic pIRES2-EGFP vector, expressed in HeLa cells or LECs (protein, UniProt Q5T442 1-439, looked up)
Gap junction gamma-2 protein: MTNMSWSFLTRLLEEIHNHSTFVGKVWLTVLVVFRIVLTAVGGEAIYSDEQAKFTCNTRQPGCDNVCYDAFAPLSHVRFWVFQIVVISTPSVMYLGYAVHRLARASEQERRRALRRRPGPRRAPRAHLPPPHAGWPEPADLGEEEPMLGLGEEEEEEETGAAEGAGEEAEEAGAEEACTKAVGADGKAAGTPGPTGQHDGRRRIQREGLMRVYVAQLVARAAFEVAFLVGQYLLYGFEVRPFFPCSRQPCPHVVDCFVSRPTEKTVFLLVMYVVSCLCLLLNLCEMAHLGLGSAQDAVRGRRGPPASAPAPAPRPPPCAFPAAAAGLACPPDYSLVVRAAERARAHDQNLANLALQALRDGAAAGDRDRDSSPCVGLPAASRGPPRAGAPASRTGSATSAGTVGEQGRPGTHERPGAKPRAGSEKGSASSRDGKTTVWI
B1: the elect coupling was 31.6 pA/mV, the electrical coupling worked out at 35.9 pA/mV and the “electrical coupling / functional channels in HeLa cell pairs (in words)” value is listed as “show evidence of voltage-dependent gating”. Also, under “listed as WT hCx47”, the “electrical coupling / functional channels in HeLa cell pairs (in words)” value is reported as “well coupled”. Also, for the setting “listed as WT-hCX47-EGFP”, the “electrical coupling / functional channels in HeLa cell pairs (in words)” value is on record as “well coupled”.

B2: G146S: Cx47 missense mutant G146S (436G>A), intracellular loop, construct expressed in HeLa cells or LECs (protein, listed as Homo sapiens)
chain: MSWSFLTRLLEEIHNHSTFVGKVWLTVLVVFRIVLTAVGGEAIYSDEQAKFTCNTRQPGCDNVCYDAFAPLSHVRFWVFQIVVISTPSVMYLGYAVHRLARASEQERRRALRRRPGPRRAPRAHLPPPHAGWPEPADLGEEEPMLSLGEEEEEEETGAAEGAGEEAEEAGAEEACTKAVGADGKAAGTPGPTGQHDGRRRIQREGLMRVYVAQLVARAAFEVAFLVGQYLLYGFEVRPFFPCSRQPCPHVVDCFVSRPTEKTVFLLVMYVVSCLCLLLNLCEMAHLGLGSAQDAVRGRRGPPASAPAPAPRPPPCAFPAAAAGLACPPDYSLVVRAAERARAHDQNLANLALQALRDGAAAGDRDRDSSPCVGLPAASRGPPRAGAPASRTGSATSAGTVGEQGRPGTHERPGAKPRAGSEKGSASSRDGKTTVWI
Turning to B2, the elect coupling is recorded as 16.2 pA/mV, the electrical coupling is given as 32.4 pA/mV and the “electrical coupling / functional channels in HeLa cell pairs (in words)” value was “well coupled”.
